Experimental findings from patent EP1506972A1 (Genentech Inc., dated 2005) are described below.

Substitutions are numbered along the chain they refer to. A value given as a limit tells only on which side of the number the result lay.

Assay in all cases: competitive phage ELISA, soluble IGFBP-1 vs coated IGFBP-1
Assay [1] deals with T1, IGF-I P66A (G1S-A70V background) displayed on phage (human; bacteriophage M13).
T1 construct: not shown: Display carrier: M13 gene III protein fragment (residues 249-406) and its junction to Val70

Assay [2] deals with T2, IGF-I E46A (G1S-A70V background) displayed on phage (human; bacteriophage M13).
T2 construct: not shown: Display carrier: M13 gene III protein fragment (residues 249-406) and the junction to it
T2 chain: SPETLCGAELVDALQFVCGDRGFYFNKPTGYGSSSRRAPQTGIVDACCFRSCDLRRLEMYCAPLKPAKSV

Assay [3] addresses T3, IGF-I R55A (G1S-A70V background) displayed on phage (human; bacteriophage M13).
T3 construct: not shown: Display carrier: M13 gene III protein fragment (residues 249-406) and the junction to it
T3 chain: T2 chain with A46E, R55A

The target of assay [4] is T4, IGF-I L14A (G1S-A70V background) displayed on phage (human; bacteriophage M13).
T4 construct: not shown: M13 gene III fragment (residues 249-406, display carrier) and the IGF-g3 junction
T4 chain: T2 chain with L14A, A46E

Assay [5] has as its target T5, IGF-I D12A (G1S-A70V background) displayed on phage (human; bacteriophage M13).
T5 construct: not shown: M13 gene III fragment (residues 249-406, display carrier) and the IGF-g3 junction
T5 chain: T2 chain with D12A, A46E

Assay [6] concerns the target T6, IGF-I D53A (G1S-A70V background) displayed on phage (human; bacteriophage M13).
T6 construct: not shown: Display carrier: M13 gene III protein fragment (residues 249-406) and the junction to it
T6 chain: T2 chain with A46E, D53A

The target of assay [7] is T7, IGF-I G7A (G1S-A70V background) displayed on phage (human; bacteriophage M13).
T7 construct: not shown: M13 gene III fragment (residues 249-406, display carrier) and the IGF-g3 junction
T7 chain: T2 chain with G7A, A46E

In assay [8] the target is T8, IGF-I R56A (G1S-A70V background) displayed on phage (human; bacteriophage M13).
T8 construct: not shown: M13 gene III fragment (residues 249-406), the display partner, and its junction to IGF-I
T8 chain: T2 chain with A46E, R56A

Assay [9] has as its target T9, IGF-I G30A (G1S-A70V background) displayed on phage (human; bacteriophage M13).
T9 construct: not shown: Display carrier: M13 gene III protein fragment (residues 249-406) and the junction to it
T9 chain: T2 chain with G30A, A46E

Assay [10] concerns the target T10, IGF-I K65A (G1S-A70V background) displayed on phage (human; bacteriophage M13).
T10 construct: not shown: M13 gene III fragment (residues 249-406), the display partner, and its junction to IGF-I
T10 chain: T2 chain with A46E, K65A

Assay [11] has as its target T11, IGF-I S51A (G1S-A70V background) displayed on phage (human; bacteriophage M13).
T11 construct: not shown: Display carrier: M13 gene III protein fragment (residues 249-406) and the junction to it
T11 chain: T2 chain with A46E, S51A

Assay [12] deals with T12, IGF-I L10A (G1S-A70V background) displayed on phage (human; bacteriophage M13).
T12 construct: not shown: M13 gene III fragment (residues 249-406, display carrier) and the IGF-g3 junction
T12 chain: T2 chain with L10A, A46E

In assay [13] the target is T13, IGF-I L54A (G1S-A70V background) displayed on phage (human; bacteriophage M13).
T13 construct: not shown: Display carrier: M13 gene III protein fragment (residues 249-406) and the junction to it
T13 chain: T2 chain with A46E, L54A

In assay [14] the target is T14, IGF-I V17A (G1S-A70V background) displayed on phage (human; bacteriophage M13).
T14 construct: not shown: M13 gene III fragment (residues 249-406, display carrier) and the IGF-g3 junction
T14 chain: T2 chain with V17A, A46E

Assay [15] addresses T15, IGF-I Q15A (G1S-A70V background) displayed on phage (human; bacteriophage M13).
T15 construct: not shown: M13 gene III fragment (residues 249-406, display carrier) and the IGF-g3 junction
T15 chain: T2 chain with Q15A, A46E

The target in assay [16] is T16, IGF-I R50A (G1S-A70V background) displayed on phage (human; bacteriophage M13).
T16 construct: not shown: Display carrier: M13 gene III protein fragment (residues 249-406) and the junction to it
T16 chain: T2 chain with A46E, R50A

Assay [17] concerns the target T17, IGF-I E58A (G1S-A70V background) displayed on phage (human; bacteriophage M13).
T17 construct: not shown: M13 gene III fragment (residues 249-406), the display partner, and its junction to IGF-I
T17 chain: T2 chain with A46E, E58A

B1: human IGFBP-1 (other, UniProt P08833 26-259, looked up)
chain: APWQCAPCSAEKLALCPPVSASCSEVTRSAGCGCCPMCALPLGAACGVATARCARGLSCRALPGEQQPLHALTRGQGACVQESDASAPHAAEAGSPESPESTEITEEELLDNFHLMAPSEEDHSILWDAISTYDGSKALHVTNIKKWKEPCRIELYRVVESLAKAQETSGEEISKFYLPNCNKNGFYHSRQCETSMDGEAGLCWCVYPWNGKRIPGSPEIRGDPNCQIYFNVQN
notes: Secreted recombinant protein
As to B1, the “relative IC50 (IC50mut/IC50 G1S-A70V)” value was 1.1 fold in assay [1]; 1 fold in assay [2]; 1.1 fold in assay [3]; 4.5 fold in [4]; 0.5 fold in [5]; 1.9 fold in assay [6]. The “relative IC50 (IC50mut/IC50 G1S-A70V)” value in assay [7] was more than 100 fold; in [8] it was 1.6 fold; in assay [9], 0.9 fold; in [10] it was 1.5 fold; in assay [11], 1.6 fold; in assay [12] it was 37.9 fold. Moreover, the “relative IC50 (IC50mut/IC50 G1S-A70V)” value in [13] was 2.8 fold; in assay [14] it was 5.2 fold; in assay [15], 1.7 fold; in [16], 2 fold; in [17], 1.5 fold.
